Test results as given in patent US9127040B2, “Regulation of sodium channels by PLUNC proteins” (The University of North Carolina at Chapel Hill, priority 2011, dated 2015).

Experiments:
ENaC = target: T1, ENaC (Homo sapiens, UniProt P37088+P51168+P51170); assay: Transepithelial voltage (PD), thin film conditions, human bronchial epithelial cultures; assay type: cell-based; conditions: 50 ng/ml, PD remeasured 45 min later, prewashed cultures
T1 construct: measured the transepithelial voltage under thin film conditions in human bronchial epithelial cultures; endogenous in cells; host or cells: primary human bronchial epithelial cultures (normal or CF donors)
T1 sequence (P37088 1-669): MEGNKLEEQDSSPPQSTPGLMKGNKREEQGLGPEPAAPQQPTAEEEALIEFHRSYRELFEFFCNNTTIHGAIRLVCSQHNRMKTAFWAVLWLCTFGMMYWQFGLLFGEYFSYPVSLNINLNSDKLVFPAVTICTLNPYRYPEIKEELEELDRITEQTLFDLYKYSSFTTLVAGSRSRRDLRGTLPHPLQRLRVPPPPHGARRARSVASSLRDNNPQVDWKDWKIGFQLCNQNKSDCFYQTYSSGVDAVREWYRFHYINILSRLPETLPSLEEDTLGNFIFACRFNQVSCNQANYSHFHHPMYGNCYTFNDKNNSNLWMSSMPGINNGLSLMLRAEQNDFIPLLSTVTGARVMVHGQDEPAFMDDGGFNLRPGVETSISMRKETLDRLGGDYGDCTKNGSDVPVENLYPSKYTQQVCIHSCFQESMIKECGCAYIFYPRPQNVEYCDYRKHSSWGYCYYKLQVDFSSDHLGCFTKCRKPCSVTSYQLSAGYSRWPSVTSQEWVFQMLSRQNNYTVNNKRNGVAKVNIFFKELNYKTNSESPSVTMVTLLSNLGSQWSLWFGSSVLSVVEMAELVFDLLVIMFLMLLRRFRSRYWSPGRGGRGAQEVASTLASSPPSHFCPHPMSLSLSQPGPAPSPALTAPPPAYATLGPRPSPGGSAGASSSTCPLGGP
T1 sequence (P51168 1-640): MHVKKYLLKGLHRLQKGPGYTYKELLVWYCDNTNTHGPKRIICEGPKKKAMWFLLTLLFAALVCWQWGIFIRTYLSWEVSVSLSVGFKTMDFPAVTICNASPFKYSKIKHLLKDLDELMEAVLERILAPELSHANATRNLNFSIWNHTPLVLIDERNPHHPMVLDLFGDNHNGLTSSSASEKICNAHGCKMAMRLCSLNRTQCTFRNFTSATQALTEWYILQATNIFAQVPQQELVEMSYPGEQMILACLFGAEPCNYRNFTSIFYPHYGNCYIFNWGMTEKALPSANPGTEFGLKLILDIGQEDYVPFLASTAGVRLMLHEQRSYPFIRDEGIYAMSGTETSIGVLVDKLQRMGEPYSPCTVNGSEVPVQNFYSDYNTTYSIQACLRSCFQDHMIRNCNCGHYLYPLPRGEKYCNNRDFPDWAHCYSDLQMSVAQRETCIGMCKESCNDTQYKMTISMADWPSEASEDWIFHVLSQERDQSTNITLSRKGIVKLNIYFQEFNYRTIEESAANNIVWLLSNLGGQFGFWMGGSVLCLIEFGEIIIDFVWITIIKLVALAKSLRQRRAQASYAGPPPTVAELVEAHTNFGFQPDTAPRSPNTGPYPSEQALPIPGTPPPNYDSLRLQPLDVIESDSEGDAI
T1 sequence (P51170 1-649): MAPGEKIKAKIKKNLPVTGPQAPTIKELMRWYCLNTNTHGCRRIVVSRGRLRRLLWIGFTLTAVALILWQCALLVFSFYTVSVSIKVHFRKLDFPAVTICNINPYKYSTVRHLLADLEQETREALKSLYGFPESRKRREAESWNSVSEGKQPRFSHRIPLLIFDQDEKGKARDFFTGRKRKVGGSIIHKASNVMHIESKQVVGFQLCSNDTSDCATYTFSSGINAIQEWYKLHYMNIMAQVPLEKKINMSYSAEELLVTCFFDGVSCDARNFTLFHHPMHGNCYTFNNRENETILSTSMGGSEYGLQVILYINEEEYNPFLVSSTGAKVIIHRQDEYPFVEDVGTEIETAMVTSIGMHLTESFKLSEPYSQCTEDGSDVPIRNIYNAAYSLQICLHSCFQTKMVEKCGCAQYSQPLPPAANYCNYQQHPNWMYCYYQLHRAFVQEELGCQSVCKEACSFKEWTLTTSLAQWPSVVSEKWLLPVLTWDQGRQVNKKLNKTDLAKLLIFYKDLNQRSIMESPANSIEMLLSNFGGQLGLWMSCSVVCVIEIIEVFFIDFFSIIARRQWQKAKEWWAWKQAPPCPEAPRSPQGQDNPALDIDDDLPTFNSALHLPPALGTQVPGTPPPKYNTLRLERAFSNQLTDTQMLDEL
Excerpt: Tissue procurement and cell culture: Cells were harvested by enzymatic digestion from human bronchial tissue as previously described under a protocol approved by the UNC School of Medicine IRB (Tarran et al., J. Gen. Physiol. 127:591 (2006)). Human excess donor lungs and excised recipient lungs were obtained at the time of lung transplantation from portions of main stem or […] bronchi and cells were harvested by enzymatic digestion. All preparations were maintained at an air-liquid interface in a modified bronchial epithelial medium and used 2-5 weeks after seeding on 12 mm T-Clear inserts (Corning Costar) coated with human placental type VI collagen (Sigma). Phosphate buffered saline (PBS) was used for washing human bronchial epithelial culture mucosal surfaces. HBECs were maintained at an air-liquid interface in a modified bronchial epithelial growth medium (BEGM) with 5% CO2 at 37° C. and used 2-5 weeks after seeding on 12-mm T-clear inserts (Corning-Costar, Corning, N.Y., USA) (Randell, Methods Mol. Biol. 742:285 (2011)).
A single-barreled potential difference-sensing electrode was placed in the airway surface liquid by micromanipulator and used in conjunction with a macroelectrode in the serosal solution to measure transepithelial voltage using a voltmeter (World Precision Instruments). […] Transepithelial resistance was routinely measured using the EVOM system (WPI) as previously described (Tarran et al., J. Gen. Physiol. 127:591 (2006)).

CF HBECs = conditions: 30 μM, ASL height over 24 h
Description: To label airway surface liquid, Ringer containing Texas Red-dextran (2 mg/ml; Invitrogen) was added to human bronchial epithelial culture mucosal surfaces. Perfluorocarbon was added mucosally to prevent evaporation of the airway surface liquid and the culture placed in a chamber containing 100 μl Ringer on the stage of a Leica SP5 confocal microscope with a 63× glycerol immersion objective. 5 points per culture were scanned and an average airway surface liquid height determined. For confocal microscopy human bronchial epithelial cultures were bathed serosally in a modified Ringer solution containing (mM): 116 NaCl, 10 NaHCO3, 5.1 KCl, 1.2 CaCl2, 1.2 MgCl2, 20 TES, 10 glucose, pH 7.4). At all other times, human bronchial epithelial cultures were maintained in a modified BEGM growth medium which contained 24 mM NaHCO3 gassed with 5% CO2.
To label the ASL, PBS containing 10 kDa Rhodamine dextran (0.2-2 mg/mL; Invitrogen, Carlsbad, Calif., USA) was added to HBEC mucosal surfaces as previously described (Tarran et al., Mol. Cell 8:149 (2001)). When added, peptides with or without 100 nM neutrophil elastase, 1 U/mL aprotinin, activated neutrophil supernatant (ANS) (Haynes et al., Am. J. Physiol. Heart Circ. Physiol. 294:H379 (2008)) or 10 μM sivelestat (Sigma-Aldrich, St Louis, Mo., USA) were added to the mucosal surface along with the Rhodamine dextran. Bumetanide (100 μM) was added to the serosal solution.

αβγENaC = target: T2, αβγENaC (Rattus norvegicus, UniProt P37089+P37090+P37091); assay: Amiloride-sensitive whole cell current, two electrode voltage clamp, Xenopus laevis oocytes expressing αβγENaC; assay type: cell-based; conditions: PLUNC family member co-expressed with α,β,γ ENaC
T2 construct: expressed in transfected cells; host or cells: Xenopus laevis oocytes (cRNA injection)
T2 sequence (P37089 1-698): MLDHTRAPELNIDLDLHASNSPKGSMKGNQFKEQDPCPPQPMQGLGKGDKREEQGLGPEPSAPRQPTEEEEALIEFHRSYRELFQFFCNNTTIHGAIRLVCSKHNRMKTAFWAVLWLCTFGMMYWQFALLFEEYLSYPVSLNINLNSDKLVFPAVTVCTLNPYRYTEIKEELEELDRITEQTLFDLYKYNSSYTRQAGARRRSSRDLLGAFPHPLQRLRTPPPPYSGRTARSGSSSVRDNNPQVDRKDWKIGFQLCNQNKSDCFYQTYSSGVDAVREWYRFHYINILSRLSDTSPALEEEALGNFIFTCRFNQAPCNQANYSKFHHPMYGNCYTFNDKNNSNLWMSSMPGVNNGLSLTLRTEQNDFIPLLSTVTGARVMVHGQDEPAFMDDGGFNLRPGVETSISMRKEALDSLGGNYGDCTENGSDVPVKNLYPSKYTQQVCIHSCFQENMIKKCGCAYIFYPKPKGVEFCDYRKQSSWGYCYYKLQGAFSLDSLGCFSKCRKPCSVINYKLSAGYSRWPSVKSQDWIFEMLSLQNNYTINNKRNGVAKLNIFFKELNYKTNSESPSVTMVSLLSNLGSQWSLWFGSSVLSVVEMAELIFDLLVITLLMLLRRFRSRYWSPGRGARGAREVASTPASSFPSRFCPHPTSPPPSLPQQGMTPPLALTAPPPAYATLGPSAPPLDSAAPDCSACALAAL
T2 sequence (P37090 1-638): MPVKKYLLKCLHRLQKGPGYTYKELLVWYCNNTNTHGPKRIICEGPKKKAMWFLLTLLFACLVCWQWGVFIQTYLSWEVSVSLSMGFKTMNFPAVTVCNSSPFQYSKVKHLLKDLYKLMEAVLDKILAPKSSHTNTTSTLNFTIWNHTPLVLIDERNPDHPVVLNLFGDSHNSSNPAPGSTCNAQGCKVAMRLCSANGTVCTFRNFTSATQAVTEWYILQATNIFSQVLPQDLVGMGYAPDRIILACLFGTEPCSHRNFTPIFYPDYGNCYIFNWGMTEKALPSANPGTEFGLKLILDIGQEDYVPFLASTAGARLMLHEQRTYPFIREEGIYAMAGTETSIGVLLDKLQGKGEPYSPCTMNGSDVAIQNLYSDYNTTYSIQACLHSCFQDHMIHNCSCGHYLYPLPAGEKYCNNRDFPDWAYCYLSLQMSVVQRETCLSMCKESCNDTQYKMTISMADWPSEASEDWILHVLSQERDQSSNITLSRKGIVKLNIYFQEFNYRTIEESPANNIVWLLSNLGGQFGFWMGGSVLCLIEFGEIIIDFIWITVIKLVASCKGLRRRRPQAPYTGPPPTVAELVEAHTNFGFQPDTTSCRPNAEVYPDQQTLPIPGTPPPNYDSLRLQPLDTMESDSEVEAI
T2 sequence (P37091 1-650): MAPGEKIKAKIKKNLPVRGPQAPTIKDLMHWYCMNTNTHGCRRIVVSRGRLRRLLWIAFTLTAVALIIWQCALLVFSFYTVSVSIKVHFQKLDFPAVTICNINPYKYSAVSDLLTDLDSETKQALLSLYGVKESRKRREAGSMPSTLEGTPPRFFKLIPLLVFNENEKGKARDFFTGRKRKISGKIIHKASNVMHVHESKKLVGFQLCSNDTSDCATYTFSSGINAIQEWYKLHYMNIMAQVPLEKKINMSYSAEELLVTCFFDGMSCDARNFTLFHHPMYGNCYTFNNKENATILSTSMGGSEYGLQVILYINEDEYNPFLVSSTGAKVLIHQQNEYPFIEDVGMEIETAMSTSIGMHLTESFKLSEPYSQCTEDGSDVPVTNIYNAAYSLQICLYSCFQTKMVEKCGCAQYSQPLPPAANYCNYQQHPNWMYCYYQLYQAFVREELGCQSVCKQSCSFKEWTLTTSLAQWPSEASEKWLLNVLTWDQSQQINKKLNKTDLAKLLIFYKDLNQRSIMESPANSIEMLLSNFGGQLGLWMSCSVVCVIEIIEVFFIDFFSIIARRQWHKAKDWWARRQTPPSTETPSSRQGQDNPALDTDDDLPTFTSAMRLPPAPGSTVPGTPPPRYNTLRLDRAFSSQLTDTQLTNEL
Description: Xenopus laevis oocytes were harvested and injected as described (Donaldson, et al., J. Biol. Chem. 277:8338 (2002)). Defolliculated healthy stage V-VI oocytes were injected with 0.3 ng of CRNA of each ENaC subunit. Injected oocytes were kept in modified Barth's saline (in mM: 88 NaCl, 1 KCl, 2.4 NaHCO3, 0.3 Ca(NO3)2, 0.41 CaCl2, 0.82 MgSO4, and 15 HEPES, adjusted to pH 7.35 with Tris). Oocytes were studied 24 hr after injection using the two electrode voltage clamp technique as previously described (Donaldson, et al., J. Biol. Chem. 277:8338 (2002)). Oocytes were clamped at a holding potential of −60 mV. The change in amiloride-sensitive whole cell current as an indicator of ENaC activity was determined by subtracting the corresponding current value measured in the presence of 10 μM amiloride from that measured before the application of amiloride. Where appropriate, oocytes were incubated with G22-A39 or ABC for 1 h prior to recording. In some experiments β-ENaC^S518C was used which forms ENaCs that are locked into an open probability near 1.0 by exposure to the sulthydral reactive reagent [2-(Trimethyl-ammonium)ethyl]methanethiosulphonate bromide (MTSET). MTSET was added at a concentration of 1 mM to the oocyte bath as previously described (Snyder, J. Clin. Invest. 105: 45 (2000)).

B1: recombinant SPLUNC1 that had been reduced with DTT: recombinant SPLUNC1 pretreated (reduced) with DTT (protein, UniProt Q9NP55 20-256, looked up)
BPI fold-containing family A …: QFGGLPVPLDQTLPLNVNPALPLSPTGLAGSLTNALSNGLLSGGLLGILENLPLLDILKPGGGTSGGLLGGLLGKVTSVIPGLNNIIDIKVTDPQLLELGLVQSPDGHRLYVTIPLGIKLQVNTPLVGASLLRLAVKLDITAEILAVRDKQERIHLVLGDCTHSPGSLQISLLDGLGPLPIQGLLDSLTGILNKVLPELVQGNVCPLVNEVLRGLDITLVHDIVNMLIHGLQFVIKV
modifications: DTT-reduced
- inhibition of transepithelial PD after DTT reduction (ENaC): abolished SPLUNC1 activity

B2: mutant SPLUNC1: SPLUNC1 with hinge domain mutated to alanines: K94A, N103A, N104A, K138A, Q140A, N142A, D193A (protein, UniProt Q9NP55 20-256, looked up, variant K94A N103A N104A K138A Q140A N142A D193A)
BPI fold-containing family A …: QFGGLPVPLDQTLPLNVNPALPLSPTGLAGSLTNALSNGLLSGGLLGILENLPLLDILKPGGGTSGGLLGGLLGAVTSVIPGLAAIIDIKVTDPQLLELGLVQSPDGHRLYVTIPLGIALAVATPLVGASLLRLAVKLDITAEILAVRDKQERIHLVLGDCTHSPGSLQISLLAGLGPLPIQGLLDSLTGILNKVLPELVQGNVCPLVNEVLRGLDITLVHDIVNMLIHGLQFVIKV
- ASL absorption in CF cultures (CF HBECs): significantly inhibited ASL absorption

B3: SPLUNC2: human SPLUNC2 (SEQ ID NO:2), short PLUNC family protein co-expressed in oocytes (protein, listed as Homo sapiens)
chain: MLQLWKLVLLCGVLTGTSESLLDNLGNDLSNVVDKLEPVLHEGLETVDNTLKGILEKLKVDLGVLQKSSAWQLAKQKAQEAEKLLNNVISKLLPTNTDIFGLKISNSLILDVKAEPIDDGKGLNLSFPVTANVTVAGPIIGQIINLKASLDLLTAVTIETDPQTHQPVAVLGECASDPTSISLSLLDKHSQIINKFVNSVINTLKSTVSSLLQKEICPLIRIFIHSLDVNVIQQVVDNPQHKTQLQTLI
- amiloride-sensitive ENaC current relative to control, co-expression (αβγENaC): borderline significance
